Experimental data from patent publication US5534260A, “Percutaneous drug delivery system” (priority 1994, dated 1996).
“Also recorded” adds a separate entry of the source.

How the values were obtained:
[1] = Enhancement of acetylcholine chloride penetration through hairless mouse skin at pH 7.4 (Example III); type: in vitro ADME
Protocol: A percutaneous permeation enhancer having the following formula was prepared: […]
The effect of the percutaneous enhancer, as prepared in Example II above, was measured on the penetration of the quaternary compound acetylcholine chloride through hairless mouse skin at pH 7.4. […] The data below indicates a potentiating or synergistic effect in combining the agents for use as an enhancer.
Enhancement effect of 0.0465 mg/ml Sigma papain alone and in
combination with 2% Azone™ and 15% propylene glycol on the
penetration of acetylcholine chloride through hairless mouse

[2] = Fourier Transform Infrared spectroscopy of stratum corneum; design: species or system mouse; settings: for Absorbance in protein areas, peak position: Table I; for FTIR peak, Amide III / FTIR peak, Shoulder Beta sheet / FTIR peak, Alpha helix peak: Table IV; for FTIR peak, Amide III: untreated 1244; for FTIR peak, Shoulder Beta sheet: untreated 1267; for FTIR peak, Alpha helix peak: untreated 1295; for Symmetric CH peak position / Asymmetric CH peak position: Table V; for Symmetric CH peak position: normal SC 2848.3; for Asymmetric CH peak position: normal SC 2916.5; for Length of 70% line, symmetric line / Length of 70% line, asymmetric line: Table VI; for Length of 70% line, symmetric line: normal SC 8.6; for Length of 70% line, asymmetric line: normal SC 17.5
Protocol: A. Comparisons of normal stratum corneum (from mouse skin) to stratum corneum treated with a 0.09% concentration of papain for 24 hours was performed using Fourier Transform Infrared spectroscopy (FTIR). […] It is postulated that a shift from a random form of protein to the more organized beta sheet structure occurs. The alpha-helix structures of skin protein could be fractionated, uncoiled, or both.
A comparison of symmetric and asymmetric CH stretch bands was then made. These two bands represent lipid structure and would show any changes in the stratum corneum lipids caused by the papain.
B. Azone™ was tested as a permeation enhancer with and without the presence of papain.

[3] = Skin damage / irritation by papain pretreatment; settings: in words
[4] = Effect of non-enzyme components in admixture with papain on penetration of 14C-TEAB (Example IV)
[5] = acetylcholine chloride, pH 7.4, pretreated skin
[6] = 14C-TEAB through pretreated skin (n = 1 for components alone, n = 2 combinations, n = 3 papain 0.0465 mg/ml 24 hours)

B1: papain: proteolytic enzyme; preferred enzyme, readily available from Sigma Chemical Company (protein, UniProt P00784 134-345, looked up)
Papain: IPEYVDWRQKGAVTPVKNQGSCGSCWAFSAVVTIEGIIKIRTGNLNEYSEQELLDCDRRSYGCNGGYPWSALQLVAQYGIHYRNTYPYEGVQRYCRSREKGPYAAKTDGVRQVQPYNEGALLYSIANQPVSVVLEAAGKDFQLYRGGIFVGPCGNKVDHAVAAVGYGPNYILIKNSWGTGWGENGYIRIKRGTGNSYGVCGLYTSSFYPVKN
E (enhancement effect) ([1]; acetylcholine chloride, pH 7.4): 88.4 | J (flux) [1, 5]: 5.67 × 10^-4 mg/cm^2 /sec | P (permeability) [1, 5]: 2.83 ×10⁻⁶ cm/s | increase in penetration of acetylcholine chloride ([1]; pH 7.4, pretreatment): eighty-eight | recovery after removal of papain ([2]; 24 hours): partial recovery | recovery after removal of papain ([2]; 48 hours): nearly complete recovery | Absorbance in protein areas, peak position ([2]; untreated SC 1244): 1236.6 cm⁻¹ | Absorbance in protein areas, peak position ([2]; untreated SC 1267): 1263.7 cm⁻¹ | Absorbance in protein areas, peak position ([2]; untreated SC 1295): 1288.4 cm⁻¹ | Absorbance in protein areas, peak position ([2]; untreated SC 1400.5): 1403.8 cm⁻¹ | Absorbance in protein areas, peak position ([2]; untreated SC 1456): 1464.7 cm⁻¹ | Absorbance in lipid areas, symmetric CH peak position ([2]; Table II, untreated 2848.3): 2850 cm⁻¹ | Absorbance in lipid areas, asymmetric CH peak position ([2]; Table II, untreated 2916.5): 2920 cm⁻¹ | Length of the 70% line, symmetric CH ([2]; Table III, untreated 8.6): 9.1 cm⁻¹ | Length of the 70% line, asymmetric CH ([2]; Table III, untreated 17.5): 17.5 cm⁻¹ | FTIR peak, Amide III ([2]; 24 hr recovery after papain): 1242.4 cm⁻¹ | FTIR peak, Shoulder Beta sheet ([2]; 24 hr recovery after papain): 1271.8 cm⁻¹ | FTIR peak, Alpha helix peak ([2]; 24 hr recovery after papain): 1301.7 cm⁻¹ | FTIR peak, Amide III ([2]; 48 hr recovery after papain): 1243.2 cm⁻¹ | FTIR peak, Shoulder Beta sheet ([2]; 48 hr recovery after papain): 1268.4 cm⁻¹ | FTIR peak, Alpha helix peak ([2]; 48 hr recovery after papain): 1296.5 cm⁻¹ | FTIR peak, Amide III ([2]; papain treated): 1236 cm⁻¹ | FTIR peak, Shoulder Beta sheet ([2]; papain treated): 1262 cm⁻¹ | FTIR peak, Alpha helix peak ([2]; papain treated): 1288 cm⁻¹ | Symmetric CH peak position ([2]; 48 hr recovery SC): 2849.3 cm⁻¹ | Asymmetric CH peak position ([2]; 48 hr recovery SC): 2916.5 cm⁻¹ | Symmetric CH peak position ([2]; papain treated SC): 2848.5 cm⁻¹ | Asymmetric CH peak position ([2]; papain treated SC): 2916.3 cm⁻¹ | Length of 70% line, symmetric line ([2]; 48 hr recovery SC): 10.5 cm⁻¹ | Length of 70% line, asymmetric line ([2]; 48 hr recovery SC): 19.3 cm⁻¹ | Length of 70% line, symmetric line ([2]; papain treated SC): 9.1 cm⁻¹ | Length of 70% line, asymmetric line ([2]; papain treated SC): 17.5 cm⁻¹ | change in lipid structure / CH stretch bands of stratum corneum ([2]; in words): no change in lipid structure | change in protein FTIR areas of stratum corneum ([2]; in words): significant changes occurring in the amide III, beta sheet, and alpha-helix formations of the stratum corneum cells | drug penetration (pH 7.4): greater drug penetration | increase in absorption of TEAB (skin pretreated with papain): 3,346% | skin damage / irritation [3]: increased damage to the skin and can cause bleeding; also recorded: damage the skin, possibly leading to bleeding | J (flux) [4, 6]: (1.33 ± 0.48) × 10^-4 mg cm^-2 s^-1 | P (permeability) [4, 6]: (1.63 ± 0.59) × 10^-7 cm s^-1 | E (enhancement effect) ([4]; 14C-TEAB, n = 1 components alone, n = 2 combinations, n = 3 papain): 32.93
